In experiment [1] the target is CagA-C1164S (Helicobacter pylori strain 26695) (UniProt P55980). Put plainly: AUC; sedimentation velocity, 20 °C, 10 mM HEPES pH 7.7, 150 mM NaCl, 1 mM EDTA; 5.5 μM CagA-CS, 11 μM PAR1b (39–364), alone or mixed; c(s) by SEDFIT.
Experiment [2] addresses GST-CagA-1CM^E (Helicobacter pylori strain 26695) (UniProt P55980). Put plainly: pull-down; quantitative GST pull-down: GST-CagA on beads in a range of concentrations, fixed low concentration of PAR1b (39–364)-FLAG, GST-binding buffer with 0.01% Triton-X, 20 min at 4 °C, unbound PAR1b in the supernatant quantified, binding to GST control subtracted; apparent KD.
Experiment [3] deals with GST-CagA-1CM^W1 (Helicobacter pylori strain 26695) (UniProt P55980). Described as above.
Experiment [4] has as its target GST-CagA-1CM^W2 (Helicobacter pylori strain 26695) (UniProt P55980). The experiment is described as above.

For the substance “PAR1b (39–364) (from UniProt Q7KZI7-14 39-364) (domain or fragment)”, in experiment [1], the stoichiometry N (PAR1b per CagA) was found to be 2.
Consider “PAR1b (39–364)-FLAG (from UniProt Q7KZI7-14 39-364) (domain or fragment)”, for which the Kd in experiment [2] is 46.4 nM; in experiment [3], 90.3 nM; in experiment [4], 106 nM.

The record behind these values is article PMC4957108.
